The record followed here is patent US20070287665A1 (SOCIETE DE CONSEILS DE RECHERCHES ET D APPLICATIONS …, published 2007).

The target of experiment [1] is U-II receptors (rat thoracic aorta tissue) (rat) (UniProt P49684). Put plainly: cell-based or functional assay.
The target is the same in experiment [2]. Put plainly: method not described; presumably binding to rat aorta tissue / U-II receptors.
The target in experiment [3] is T1, U-II receptors (rat thoracic aorta tissue) (rat, UniProt P49684 1-386).
T1 sequence (looked up): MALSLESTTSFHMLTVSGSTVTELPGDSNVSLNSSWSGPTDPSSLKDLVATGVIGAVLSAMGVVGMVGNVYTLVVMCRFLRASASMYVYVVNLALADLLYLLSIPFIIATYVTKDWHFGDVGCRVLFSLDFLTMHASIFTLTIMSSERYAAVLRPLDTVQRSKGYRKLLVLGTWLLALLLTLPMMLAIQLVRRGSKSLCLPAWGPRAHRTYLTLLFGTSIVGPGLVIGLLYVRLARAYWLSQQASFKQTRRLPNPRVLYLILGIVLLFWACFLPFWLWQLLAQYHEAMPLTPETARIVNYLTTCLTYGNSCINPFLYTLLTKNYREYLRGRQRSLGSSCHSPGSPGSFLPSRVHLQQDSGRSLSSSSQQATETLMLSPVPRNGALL
In words: cell-based or functional assay.

The target in experiment [4] is T1, U-II receptors (rat thoracic aorta …). Put plainly: cell-based or functional assay. This is another data set of the same source.

Bridge positions count the residues as written; N and C are the ends. Square brackets hold non-standard residues; d marks the D form. Ends that are not written are not given here. dDip = N[C@@H](C(=O)O)C(c1ccccc1)c1ccccc1; Phe(4-Cl) = N[C@@H](Cc1ccc(Cl)cc1)C(=O)O; Phe(4-F) = N[C@@H](Cc1ccc(F)cc1)C(=O)O; 3Pal = N[C@@H](Cc1cccnc1)C(=O)O; Tle = CC(C)(C)[C@H](N)C(=O)O; Nal = naphthylalanine

Take “Cpa-c[D-Cys-Pal-D-Trp-Lys-Val-Cys]-Cpa-amide (peptide)”: the IC50 against U-II-induced phasic contractions in circular rat thoracic aorta strips in experiment [1] is 100 nM. The same molecule registered a dissociation constant (Kd) in experiment [2] of 240 nM.

B1: Cpa-c[D-Cys-Phe-Trp-Lys-Thr-Cys]-Val-NH2 (peptide)
peptide: [Phe(4-Cl)][dC]FWKTCV-NH2
modifications: disulfide 2-7; N-terminus assumed
SMILES: CC(C)[C@H](NC(=O)[C@@H]1CSSC[C@@H](NC(=O)[C@@H](N)Cc2ccc(Cl)cc2)C(=O)N[C@@H](Cc2ccccc2)C(=O)N[C@@H](Cc2c[nH]c3ccccc23)C(=O)N[C@@H](CCCCN)C(=O)N[C@@H]([C@@H](C)O)C(=O)N1)C(N)=O
In the case of B1, in experiment [3], the “IC50 against U-II-induced phasic contractions in circular rat thoracic aorta strips” value worked out at 2 nM.

With [Phe(4-Cl)][dC][3Pal][dW]K[Tle]C[Nal]-NH2 (disulfide 2-7 (inferred)) [Cpa-D-Cys-Pal-D-Trp-Lys-Tle-Cys-Nal-NH2], in experiment [4], the “SRIF Antagonist IC50s (nM) against U-II Stimulation of Rat Aorta Phasic Contractions” value (“SRIF Antagonist IC50s (nM)” for short) was 10 nM.

B2: Cpa-D-Cys-Tyr-D-Trp-Lys-Thr-Cys-Nal-NH2 (peptide)
peptide: XXYXKTCX
modifications: Cpa (p-chlorophenylalanine) at 1; D-Cys at 2; D-Trp at 4; Nal (naphthylalanine) at 8; C-terminal amide
B2: in experiment [4], the “SRIF Antagonist IC50s (nM)” value was found to be 12 nM. Turning to [Phe(4-F)][dC][3Pal][dW]K[Tle]C[Nal]-NH2 (disulfide 2-7 (inferred)) [4Fpa-D-Cys-Pal-D-Trp-Lys-Tle-Cys-Nal-NH2], the “SRIF Antagonist IC50s (nM)” value in experiment [4] was found to be 100 nM.

[Phe(4-F)][dC][3Pal][dW]KVC[Nal]-NH2 (disulfide 2-7 (inferred)) [4Fpa-D-Cys-Pal-D-Trp-Lys-Val-Cys-Nal-NH2]: in experiment [4], the “SRIF Antagonist IC50s (nM)” value was 1090 nM. Regarding [Nal][dC]H[dW]KVC[dDip]-NH2 (disulfide 2-7 (inferred)) [Nal-D-Cys-His-D-Trp-Lys-Val-Cys-D-Dip-NH2], in experiment [4], the “SRIF Antagonist IC50s (nM)” value was 1800 nM. Turning to [Phe(4-Cl)][dC][3Pal]WKTC[Phe(4-Cl)]-NH2 (disulfide 2-7 (inferred)) [Cpa-D-Cys-Pal-Trp-Lys-Thr-Cys-Cpa-NH2], in experiment [4], the “SRIF Antagonist IC50s (nM)” value stood at 2 nM.

The term Kd denotes a measure of binding affinity in units of concentration. Low values mean higher affinity, high ones lower affinity.
